{
  "source": "paper PMC2639713",
  "biological_target": "T1, mini-vRNAP K176C/S885C (Bacteriophage N4 (coliphage), UniProt Q859P9 998-2103, K1173C;S1882C)",
  "T1 sequence": "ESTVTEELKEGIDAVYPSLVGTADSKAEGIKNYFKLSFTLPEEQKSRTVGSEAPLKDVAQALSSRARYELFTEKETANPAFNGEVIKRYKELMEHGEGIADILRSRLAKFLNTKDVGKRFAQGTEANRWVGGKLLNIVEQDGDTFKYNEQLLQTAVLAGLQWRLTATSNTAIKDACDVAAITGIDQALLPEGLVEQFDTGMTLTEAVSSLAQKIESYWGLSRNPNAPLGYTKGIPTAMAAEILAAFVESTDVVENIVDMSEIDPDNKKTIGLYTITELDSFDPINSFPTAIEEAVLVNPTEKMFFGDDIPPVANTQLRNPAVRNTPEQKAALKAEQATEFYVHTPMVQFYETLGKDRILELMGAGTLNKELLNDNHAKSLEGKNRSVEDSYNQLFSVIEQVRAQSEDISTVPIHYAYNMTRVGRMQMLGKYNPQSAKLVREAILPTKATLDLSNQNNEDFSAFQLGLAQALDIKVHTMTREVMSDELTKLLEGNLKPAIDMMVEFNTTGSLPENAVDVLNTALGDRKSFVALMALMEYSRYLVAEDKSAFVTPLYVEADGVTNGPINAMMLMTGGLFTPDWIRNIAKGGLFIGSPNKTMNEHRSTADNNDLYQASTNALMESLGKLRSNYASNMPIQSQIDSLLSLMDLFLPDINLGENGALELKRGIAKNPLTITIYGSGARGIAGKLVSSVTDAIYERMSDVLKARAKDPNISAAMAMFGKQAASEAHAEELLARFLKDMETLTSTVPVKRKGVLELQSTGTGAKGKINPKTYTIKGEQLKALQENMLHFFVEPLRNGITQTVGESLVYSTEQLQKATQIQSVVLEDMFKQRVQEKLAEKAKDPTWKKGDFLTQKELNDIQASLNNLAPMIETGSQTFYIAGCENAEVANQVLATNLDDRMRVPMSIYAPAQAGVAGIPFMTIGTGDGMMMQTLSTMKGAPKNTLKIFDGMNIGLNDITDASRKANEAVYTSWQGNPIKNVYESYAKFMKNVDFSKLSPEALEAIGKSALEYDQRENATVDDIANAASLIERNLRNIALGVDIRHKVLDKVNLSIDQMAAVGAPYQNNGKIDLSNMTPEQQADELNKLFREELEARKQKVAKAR",
  "assay": "UV cross-linking",
  "data": [
    {"binder": "GAAGCGTAGCTTC (structured_DNA, 5-iodo-dU at position 7 (-11), written as T)", "note": "[13mer -11 5-IdU promoter hairpin (-17 to -5)]", "values": [
      {"measurement": "binding result", "result": "binds"}
    ]}
  ]
}
